Numbering of substitutions follows the chain as printed.
T1: GST-fused truncated S2 protein S2 (P1140-D1153) (SARS-CoV-2, MN908947.3, UniProt P0DTC2)
T1 construct: not shown: GST, N-terminal, kept
T1 chain: PLQPELDSFKEELD

T2: GST-fused truncated S2 protein S2 (D1139-E1150) (SARS-CoV-2, MN908947.3, UniProt P0DTC2)
T2 construct: not shown: GST, N-terminal, kept
T2 chain: DPLQPELDSFKE

T3: GST-fused truncated S2 protein S2 (P1140-L1152) (SARS-CoV-2 prototype (MN908947.3), UniProt P0DTC2)
T3 construct: not shown: GST, N-terminal, kept
T3 chain: PLQPELDSFKEEL

T4: GST-fused truncated S2 protein S2 (L1141-L1152) (SARS-CoV-2 prototype (MN908947.3), UniProt P0DTC2)
T4 construct: not shown: GST, N-terminal, kept
T4 chain: LQPELDSFKEEL

T5: epitope SH-peptide (spanning residues D1139-D1153) (SARS-CoV-2 prototype, UniProt P0DTC2)
T5 chain: DPLQPELDSFKEELD

T6: GST-fused truncated S2 protein S2 (D1139-L1152) (SARS-CoV-2, MN908947.3)
T6 construct: not shown: GST, N-terminal, kept
T6 chain: DPLQPELDSFKEEL

B1: nanobody H8 (VHH)
VHH: QVQLVESGGGLVQTGGSLRLSCAVSRFTLDYGATGWFRQAPGKEREGVSCIGRDDGSTYYAESVKGRFTMSRDKAKNTVYLEMNSLKPEDTAVYYCAADYFARCAANLPNRYLYWGQGTQVTVSS
notes: not shown: His6, C-terminal, kept
B2: H45 (VHH)
VHH: QLQLVESGGGSVQSGGSLRLSCLATGRKLDDLVIKWFRQPPGKLREGVACISGSGRTIKYADSVKGRFIISNEYGKNTVYLQMNSLTPDDTAVYYCAAEQILCDRKWYPLGNDYYGQGTQVTVSS
B3: nanobody H93 (VHH)
VHH: QLQLVESGGGLVQPGGSLRLSCVVSGGTLDYHAIAWFRQAPGKVREGVLCISSSGGSTNWLEAVKGRFTISRDNAKNTVYLQMNSLKPEDTAVYYCAAVRRCFLTTWTPINPYYGMHSWGKGTLVTVSS
notes: as for B1
B4: H184 (VHH)
VHH: QLQLVESGGGLVQPGGSLTLSCTASVDYYALGWFRQTPEKQREGVSCIGISGQRTFYADSVKGRFNITRDNTRKTAFLQMKDLKPEDTGVYFCAAERGRTVDAMCLKARPDYWGQGTQVTVSS
B5: H15 (VHH)
VHH: QLQLVESGGALAQPGGSLTLSCAVRGATLDSYAIAWFREAPGEEREGVACIGGSEESTFMKYSLKDRVSLSTNRAEKMVYLHMNSLQPEDTAAYYCAASASGSRSVLAGCPSRTMGFWGKGTLVTVSS
B6: H36 (VHH)
VHH: QVQLVESGGALVQPGGSLTLSCSGHGITLRHYTVGWFREAPGKRRQWISSIRSSDERTNYAASVKGRFIISRNDGENTVKLQLNDVGPEDMATYRCAAGADTIKVFSGWAADYMFWGQGTQVTVSS
B7: nanobody H180 (VHH)
VHH: QVQLVESGGGLVQAGGSLKLSCAASGLRSDGTAIGWFRQAPGKEREWVSCIRRRDGGTYYADSVESRFTISRDVAKNTVHLQMNSLKPEDTAVYYCASRDDSWCTTRSYEYSYWGQGTPVTVSS
notes: as for B1
B8: nanobody H49 (VHH)
VHH: QLQLVESGGGSVQAGGSLRLACTTSGRTFNKYAMAWFRQPPGQEREFIASITWIGGSTYYANSAKGRFTISRDNAKNTAYLQMNSLKPDDTAVYQCQLRKGILSYWGQGTQVTVSS
notes: as for B1
B9: H27 (VHH)
VHH: EVQVVESGGGLVQAGDSLTLSCVAVQGERFFSQYTVGWFRQAPGRERTLVATINYSRETYYSDSAKGRFTISRDNAKNTVYLQMNSLNPEDTATYYCAATRHARISTTITEDRYDYWGQGTQVTVSS
B10: nanobody H177 (VHH)
VHH: QVQLVESGGGRVPPGGSLRLSCVASGFYWDYFVISWFRQAPGKEREWVSCIRSATDSANYADFVKGRFTISRENGKSTVYLQMNSLTPEDTAVYRCAVAYGTSWCRNPADMNYWGKGTLVTVSS
notes: as for B1
B11: nanobody H145 (VHH)
VHH: QVQLVESGGGLVQTGGSLRLSCEASGSAFSSYAVNWYRQAPGKQREPVAAIGSFNTVYSDSVKGRFTISRDNAKNTVYLQMNSLKPEDTAVYICNARRGATNTWGQGTQVTVSS
notes: also called anti-SH nNb H145; not shown: His6, C-terminal, kept
B12: nanobody H23 (VHH)
VHH: EVQVVESGGGWVQAGGSRRLSCAASGFTLDSYAVGWFRQAPGKEREGVSCISGISSSGGTTNYVDSVKGRFTISRDNAKNTVYLQMNSLKPEDTAVYYCAAVRRCFLTTWTPINPYYGMHSWGKGTLVTVSS
notes: as for B1
B13: nanobody H84 (VHH)
VHH: B12 VHH with E1Q, V2L, V4L, R18L, V82A, Y83E, A100T
notes: as for B1
B14: nanobody H88 (VHH)
VHH: QVQLVESGGGLLQPGGSLRLSCAASGFTLDNYAIGWFRQAPGKEREWVSCISVSDGRTYYADSVQGRFTTSRDNAKNTVYLHLNSLKPEDTAVYSCASRRGRWCTTRSYEYEYWGQGTQVTVSS
notes: as for B1
B15: H6 (VHH)
VHH: QVQLVESGGGLVEAGGSLRLSCTTSGGTLSPYTMGWFRQAPGKGREFVSGISCLGWHSYEGDSVKGRFTISRDNAKNTLYLQMNSLKPEDTAVYYCAASSGCSSTMIDADFTSWGQGTQVTVSS
B16: nanobody H58 (VHH)
VHH: QLQLVESGGGLADDGGSLRLSCAASGFALRYWTVGWFRQAPGKEREGLACISRSGNITSYTDSAKGRFTISRDNAKNTVYLQMNSLKPEDTAVYYCTAVRRCFLTTWTPINPYYGMHSWGKGTLVTVSS
notes: as for B1
B17: H43 (VHH)
VHH: EVQVVESGGDLVQAGASLRLSCAAPEPVFISSFGNKYAFGWFRQAPGKQRELVASISGIGNTNYADSVNGRFTISRDNAKNSVYLQMNSLKPEDTAVYYCTAVRRCFLTTWTPINPYYGMHSWGKGTLVTVSS
B18: nanobody H68 (VHH)
VHH: EVQVVESGGGLVQPGGSLRLSCVGSSFTLNAIGWFRQAPGKEREWVSCTTGDGSTNYPDSVKGRFTISRDNAKNTVYLQMNSLKPEDTAVYYCTAVRRCFLTTWTPINPYYGMHSWGKGTLVTVSS
notes: as for B1
B19: H147 (VHH)
VHH: QVQLVESGGAWVQPGGSLRLSCVASGFTLDYYAVGWFRQAPGKEREGVSCISRRGGESTNYASSVKGRFTISRDSVKNTVYLQMNSLKPEDTAVYYCAAVLRCFSTTWAPINPYYGMHSWGKGTLVTVSS
B20: H102 (VHH)
VHH: QVQLVESGGGLVQPGGSLRLSCTGSGLSLEDYAIGWFRQAPGKDRNWVACIPHKREPLYRDYVRGRFTISRNNTANTVDLQMNSLKPEDTAVYYCTAVRRCFLTTWTPINPYYGMHSWGKGTLVTVSS
B21: nanobody H85 (VHH)
VHH: QLQLVESGGGLVQAGGSLRLSCAASGSTISRHAMGWYRQAPGMQRELVASISSGGTTNYADSVKGRFTISRDSAKNMVYLHMTSLKPEDTAVYYCATKPVHMLTRRLHLGGCTYGMDYWGKGTLVTVSS
notes: as for B1

How the values were obtained:
[1] = biological target: S2 (T1076-Q1208) protein as coated in ELISA (devoid of the His tag) (SARS-CoV-2, MN908947.3, UniProt P0DTC2); test: ELISA; […], room temperature; […]; details: both partners purified
[2] = biological target: SARS-CoV-2 S2 (T1076-Q1208) antigen, trimeric S2 fusion-core-based antigen (SARS-CoV-2 prototype (MN908947.3), UniProt P0DTC2, biotin (Biotinylation Kit))
[3] = biological target: SARS-CoV-2 spike (S) protein, full-length, expressed on the surface of HEK-293T cells (SARS-CoV-2 prototype (MN908947.3), UniProt P0DTC2); test: flow cytometry on cells; details: one partner purified
[4] = biological target: T1, GST-fused truncated S2 protein S2 …; test: BLI; […]; 20 mM HEPES pH 7.4, 150 mM NaCl, 0.05% Tween-20; details: both partners purified
[5] = biological target: T2, GST-fused truncated S2 protein S2 …; test: as above; details: both partners purified
[6] = biological target: T3, GST-fused truncated S2 protein S2 …; test: as above; details: both partners purified
[7] = biological target: T4, GST-fused truncated S2 protein S2 …; test: as above; details: both partners purified
[8] = biological target: T5, epitope SH-peptide (spanning residues …); test: crystal structure; details: both partners purified
[9] = biological target: T7, GST-fused truncated S2 protein S2 (T1076-H1159) (SARS-CoV-2 prototype (MN908947.3), UniProt P0DTC2); test: far-Western, overlay or dot blot; details: both partners purified
T7 construct: not shown: GST, N-terminal, kept

[10] = biological target: T6, GST-fused truncated S2 protein S2 …; test: ELISA; […], room temperature; […]; details: both partners purified
[11] = biological target: SARS-CoV spike (S) protein expressed on HEK-293T cells (SARS-CoV, GenBank AY278554.2, UniProt P59594); test: flow cytometry on cells; details: one partner purified
[12] = biological target: WIV1 spike (S) protein expressed on HEK-293T cells (Bat SARS-like coronavirus WIV1 …, UniProt U5WI05, strain); test: flow cytometry on cells; details: one partner purified
[13] = biological target: HKU3 spike (S) protein expressed on HEK-293T cells (Bat SARS-like coronavirus HKU3, GenBank …, UniProt A0A7G6UAJ9, strain); test: flow cytometry on cells; details: one partner purified
[14] = biological target: PANG/GD spike (S) protein expressed on HEK-293T cells (Pangolin coronavirus Guangdong …, strain); test: flow cytometry on cells; details: one partner purified

Row | Binder | binding result [1] | binding result [2] | binding result [3] | other results
1 | B1 | binds |  |  | 
2 | B2 |  | binds |  | 
3 | B3 | binds |  | binds | 
4 | B4 |  | binds |  | 
5 | B5 |  | binds |  | 
6 | B6 |  | binds |  | 
7 | B7 | binds |  | binds | 
8 | B8 | binds |  | binds | 
9 | B9 |  | binds |  | 
10 | B10 | binds |  | binds | 
11 | B11 | binds |  | binds | binding result [4]: no binding (tested: 200 nM); binding result [5]: binds; binding result [6]: no binding (tested: 200 nM); binding result [7]: no binding (tested: 200 nM); binding result [8]: binds; binding result [9]: binds; EC50 [10]: 2 nM; binding result [11]: binds; binding result [12]: binds; binding result [13]: binds; binding result [14]: binds
12 | B12 | binds |  |  | 
13 | B13 | binds |  |  | 
14 | B14 | binds |  |  | 
15 | B15 |  | binds |  | 
16 | B16 | binds |  | binds | 
17 | B17 |  | binds |  | 
18 | B18 | binds |  | binds | 
19 | B19 |  | binds |  | 
20 | B20 |  | binds |  | 
21 | B21 | binds |  |  | 
